Paper PMC9482650, “Quantitative fragmentomics allow affinity mapping of interactomes” (Nature Communications, 2022)

T1: MPDZ_5, O75970
T1 sequence (O75970 695-796, limits assumed, looked up): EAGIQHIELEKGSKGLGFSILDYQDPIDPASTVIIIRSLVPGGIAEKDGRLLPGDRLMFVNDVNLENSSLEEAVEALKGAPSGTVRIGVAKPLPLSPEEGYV

T2: APBA2_2, Q99767
T2 sequence (Q99767 654-744, limits assumed, looked up): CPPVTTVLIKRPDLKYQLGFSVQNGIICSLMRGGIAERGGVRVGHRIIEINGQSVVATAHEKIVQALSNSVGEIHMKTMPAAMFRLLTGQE

T3: NHERF3_3, Q5T2W1
T3 sequence (Q5T2W1 238-333, limits assumed, looked up): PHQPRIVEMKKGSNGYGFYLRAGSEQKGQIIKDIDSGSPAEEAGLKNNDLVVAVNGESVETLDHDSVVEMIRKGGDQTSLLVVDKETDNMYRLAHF

T4: PDZD7_3, Q9H5P4
T4 sequence (Q9H5P4 857-944, limits assumed, looked up): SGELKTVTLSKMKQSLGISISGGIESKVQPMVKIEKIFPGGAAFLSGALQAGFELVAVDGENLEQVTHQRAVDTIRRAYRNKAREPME

T5: HTRA3, P83110
T5 sequence (P83110 354-453, limits assumed, looked up): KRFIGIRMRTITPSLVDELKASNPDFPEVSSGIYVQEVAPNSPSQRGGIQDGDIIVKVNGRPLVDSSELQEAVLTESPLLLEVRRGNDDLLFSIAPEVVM

T6: APBA3_1, O96018
T6 sequence (O96018 389-490, limits assumed, looked up): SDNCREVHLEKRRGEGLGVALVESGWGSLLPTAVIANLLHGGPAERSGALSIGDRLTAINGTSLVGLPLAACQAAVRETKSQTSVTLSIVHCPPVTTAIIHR

T7: LIN7C, Q9NUP9
T7 sequence (Q9NUP9 88-185, limits assumed, looked up): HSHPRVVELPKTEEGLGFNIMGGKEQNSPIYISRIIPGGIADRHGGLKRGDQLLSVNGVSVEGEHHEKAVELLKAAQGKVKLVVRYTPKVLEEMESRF

T8: GRIP1_4, Q9Y3R0
T8 sequence (Q9Y3R0 467-571, limits assumed, looked up): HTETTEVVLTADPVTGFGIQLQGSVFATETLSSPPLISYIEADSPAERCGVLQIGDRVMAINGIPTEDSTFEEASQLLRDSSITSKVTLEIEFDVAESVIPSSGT

T9: LIN7B, Q9HAP6
T9 sequence (Q9HAP6 88-185, limits assumed, looked up): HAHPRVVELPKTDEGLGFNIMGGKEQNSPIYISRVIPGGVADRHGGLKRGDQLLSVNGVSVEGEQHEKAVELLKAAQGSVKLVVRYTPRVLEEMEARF


Experiments:
Assay in all cases: holdup assay
Set-up in all cases: key: below the threshold = too weak to quantify, mostly under pKd 3.1 to 4
Conditions in all cases: plain residues with an end cap or a label only (N-terminal biotin on a linker: ado-ado)
Inadl_10, Q8NI35 = molecular target: Inadl_10, Q8NI35
MAGI2_3, Q86UL8 = molecular target: MAGI2_3, Q86UL8
ARHGEF12, Q9NZN5-2 = molecular target: ARHGEF12, Q9NZN5-2
GRIP2_7, Q9C0E4 = molecular target: GRIP2_7, Q9C0E4
MAGI2_4, Q86UL8 = molecular target: MAGI2_4, Q86UL8
MPDZ_5, O75970 = molecular target: T1, MPDZ_5, O75970
APBA2_2, Q99767 = molecular target: T2, APBA2_2, Q99767
NHERF3_3, Q5T2W1 = molecular target: T3, NHERF3_3, Q5T2W1
DLG2_2, Q15700 = molecular target: DLG2_2, Q15700
PDZRN4_1, Q6ZMN7 = molecular target: PDZRN4_1, Q6ZMN7
PDZD7_3, Q9H5P4 = molecular target: T4, PDZD7_3, Q9H5P4
HTRA3, P83110 = molecular target: T5, HTRA3, P83110
LNX1_3, Q8TBB1 = molecular target: LNX1_3, Q8TBB1
DLG1_1, Q12959 = molecular target: DLG1_1, Q12959
APBA3_1, O96018 = molecular target: T6, APBA3_1, O96018
IL16_1, Q14005 = molecular target: IL16_1, Q14005
LIN7C, Q9NUP9 = molecular target: T7, LIN7C, Q9NUP9
LAP2, Q96RT1 = molecular target: LAP2, Q96RT1
HTRA1, Q92743 = molecular target: HTRA1, Q92743
IL16_4, Q14005 = molecular target: IL16_4, Q14005
Inadl_5, Q8NI35 = molecular target: Inadl_5, Q8NI35
PDLIM1, O00151 = molecular target: PDLIM1, O00151
LDB3, O75112 = molecular target: LDB3, O75112
DLG4_2, P78352 = molecular target: DLG4_2, P78352
AHNAK1, Q09666 = molecular target: AHNAK1, Q09666
GRIP1_4, Q9Y3R0 = molecular target: T8, GRIP1_4, Q9Y3R0
FRMPD3, Q5JV73 = molecular target: FRMPD3, Q5JV73
DLG4_3, P78352 = molecular target: DLG4_3, P78352
LIN7B, Q9HAP6 = molecular target: T9, LIN7B, Q9HAP6

Sequence of Inadl_5, Q8NI35 (Q8NI35 673-780): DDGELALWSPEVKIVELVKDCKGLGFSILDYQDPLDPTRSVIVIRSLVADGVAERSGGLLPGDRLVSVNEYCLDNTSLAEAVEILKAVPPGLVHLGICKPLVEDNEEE
Sequence of GRIP2_7, Q9C0E4 (Q9C0E4 934-1023): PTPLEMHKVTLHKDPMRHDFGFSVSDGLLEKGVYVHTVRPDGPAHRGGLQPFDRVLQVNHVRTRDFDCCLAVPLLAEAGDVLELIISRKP
Sequence of DLG2_2, Q15700 (Q15700 189-283): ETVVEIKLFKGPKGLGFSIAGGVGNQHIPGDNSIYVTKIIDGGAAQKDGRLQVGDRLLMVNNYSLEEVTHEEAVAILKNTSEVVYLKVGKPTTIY
Sequence of DLG4_3, P78352 (P78352 306-403): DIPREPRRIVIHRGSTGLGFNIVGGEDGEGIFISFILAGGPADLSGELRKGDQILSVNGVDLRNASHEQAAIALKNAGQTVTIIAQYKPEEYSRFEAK
Sequence of PDLIM1, O00151 (O00151 1-87): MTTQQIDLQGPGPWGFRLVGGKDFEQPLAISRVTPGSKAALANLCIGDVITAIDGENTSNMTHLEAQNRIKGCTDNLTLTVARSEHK
Sequence of PDZRN4_1, Q6ZMN7 (Q6ZMN7 213-318): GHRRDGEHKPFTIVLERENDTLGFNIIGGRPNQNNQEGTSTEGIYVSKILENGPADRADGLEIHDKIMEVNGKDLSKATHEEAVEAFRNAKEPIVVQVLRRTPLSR
Sequence of LNX1_3, Q8TBB1 (Q8TBB1 500-596): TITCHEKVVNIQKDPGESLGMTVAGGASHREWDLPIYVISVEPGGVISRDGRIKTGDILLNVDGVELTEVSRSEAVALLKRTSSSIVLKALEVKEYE
Sequence of ARHGEF12, Q9NZN5-2 (Q9NZN5 other isoform, or with tags, fused parts or gaps): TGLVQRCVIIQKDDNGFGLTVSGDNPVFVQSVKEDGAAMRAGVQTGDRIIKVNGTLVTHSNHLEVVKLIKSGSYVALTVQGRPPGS
Sequence of LDB3, O75112 (O75112 1-94): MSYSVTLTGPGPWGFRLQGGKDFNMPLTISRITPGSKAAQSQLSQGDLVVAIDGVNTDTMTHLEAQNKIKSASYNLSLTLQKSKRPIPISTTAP
Sequence of AHNAK1, Q09666 (Q09666 4-100): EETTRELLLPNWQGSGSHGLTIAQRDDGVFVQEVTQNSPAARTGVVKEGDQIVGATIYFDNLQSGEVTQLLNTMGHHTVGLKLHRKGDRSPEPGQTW
Sequence of IL16_4, Q14005 (Q14005 1229-1329): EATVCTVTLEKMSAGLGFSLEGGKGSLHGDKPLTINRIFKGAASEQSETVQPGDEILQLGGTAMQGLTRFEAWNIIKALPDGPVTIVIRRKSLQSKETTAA
Sequence of Inadl_10, Q8NI35 (Q8NI35 1673-1763): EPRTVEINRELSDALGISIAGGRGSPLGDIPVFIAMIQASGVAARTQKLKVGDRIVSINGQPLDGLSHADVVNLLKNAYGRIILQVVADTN
Sequence of HTRA1, Q92743 (Q92743 360-477): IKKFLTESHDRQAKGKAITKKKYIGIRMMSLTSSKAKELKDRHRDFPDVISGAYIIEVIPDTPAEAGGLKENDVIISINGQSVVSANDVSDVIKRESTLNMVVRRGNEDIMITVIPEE
Sequence of MAGI2_3, Q86UL8 (Q86UL8 600-682): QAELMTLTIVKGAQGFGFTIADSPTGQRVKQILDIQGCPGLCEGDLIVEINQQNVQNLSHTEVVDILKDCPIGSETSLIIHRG
Sequence of IL16_1, Q14005 (Q14005 210-306): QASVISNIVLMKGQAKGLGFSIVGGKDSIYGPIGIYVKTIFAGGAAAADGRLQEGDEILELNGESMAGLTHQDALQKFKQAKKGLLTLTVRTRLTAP
Sequence of FRMPD3, Q5JV73 (Q5JV73 12-100): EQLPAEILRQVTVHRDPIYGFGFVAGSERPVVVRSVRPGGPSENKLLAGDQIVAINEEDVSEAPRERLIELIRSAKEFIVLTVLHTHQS
Sequence of DLG4_2, P78352 (P78352 155-259): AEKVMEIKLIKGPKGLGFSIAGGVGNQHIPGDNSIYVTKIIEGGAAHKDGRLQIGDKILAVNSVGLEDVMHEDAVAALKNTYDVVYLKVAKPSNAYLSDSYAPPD
Sequence of LAP2, Q96RT1 (Q96RT1 other isoform, or with tags, fused parts or gaps): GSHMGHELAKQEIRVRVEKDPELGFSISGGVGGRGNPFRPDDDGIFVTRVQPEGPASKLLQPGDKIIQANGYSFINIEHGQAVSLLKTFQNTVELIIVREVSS
Sequence of MAGI2_4, Q86UL8 (Q86UL8 772-865): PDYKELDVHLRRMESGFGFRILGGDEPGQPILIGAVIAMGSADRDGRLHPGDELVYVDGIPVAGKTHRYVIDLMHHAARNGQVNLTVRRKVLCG

Binder	pKd (Inadl_10, Q8NI35)	pKd (MAGI2_3, Q86UL8)	pKd (ARHGEF12, Q9NZN5-2)	pKd (GRIP2_7, Q9C0E4)	pKd (MAGI2_4, Q86UL8)	pKd (MPDZ_5, O75970)	pKd (APBA2_2, Q99767)	pKd (NHERF3_3, Q5T2W1)	pKd (DLG2_2, Q15700)	pKd (PDZRN4_1, Q6ZMN7)	pKd (PDZD7_3, Q9H5P4)	pKd (HTRA3, P83110)	pKd (LNX1_3, Q8TBB1)	pKd (DLG1_1, Q12959)	pKd (APBA3_1, O96018)	pKd (IL16_1, Q14005)	pKd (LIN7C, Q9NUP9)	pKd (LAP2, Q96RT1)	pKd (HTRA1, Q92743)	pKd (IL16_4, Q14005)	also measured
AEDEEIQTKM [UNC93A, Q86WB7]	below the threshold	below the threshold	below the threshold	below the threshold	below the threshold	below the threshold	below the threshold	4.16	below the threshold	below the threshold	below the threshold	below the threshold	below the threshold	below the threshold	below the threshold	below the threshold	below the threshold	below the threshold	below the threshold	3.52	pKd (Inadl_5, Q8NI35): below the threshold; pKd (PDLIM1, O00151): below the threshold; pKd (LDB3, O75112): below the threshold; pKd (DLG4_2, P78352): below the threshold; pKd (AHNAK1, Q09666): below the threshold; pKd (GRIP1_4, Q9Y3R0): below the threshold; pKd (FRMPD3, Q5JV73): below the threshold; pKd (DLG4_3, P78352): below the threshold; pKd (LIN7B, Q9HAP6): below the threshold
LGHTPFVDEL [UQCRC2, P22695]	below the threshold	below the threshold	below the threshold	below the threshold	below the threshold	below the threshold	below the threshold	below the threshold	below the threshold	below the threshold	below the threshold	below the threshold	below the threshold	below the threshold	below the threshold	3.49	below the threshold	below the threshold	3.97	3.59	pKd (Inadl_5, Q8NI35): below the threshold; pKd (PDLIM1, O00151): below the threshold; pKd (LDB3, O75112): below the threshold; pKd (DLG4_2, P78352): below the threshold; pKd (AHNAK1, Q09666): below the threshold; pKd (GRIP1_4, Q9Y3R0): below the threshold; pKd (FRMPD3, Q5JV73): below the threshold; pKd (DLG4_3, P78352): below the threshold; pKd (LIN7B, Q9HAP6): below the threshold
QNRIITKTDV [SMCHD1, A6NHR9]	below the threshold	below the threshold	4.19	below the threshold	3.69	below the threshold	below the threshold	below the threshold	3.93	below the threshold	4.13	below the threshold	below the threshold	3.63	below the threshold	below the threshold	3.94	below the threshold	below the threshold	below the threshold	pKd (Inadl_5, Q8NI35): below the threshold; pKd (PDLIM1, O00151): below the threshold; pKd (LDB3, O75112): below the threshold; pKd (DLG4_2, P78352): 4.15; pKd (AHNAK1, Q09666): below the threshold; pKd (GRIP1_4, Q9Y3R0): below the threshold; pKd (FRMPD3, Q5JV73): below the threshold; pKd (DLG4_3, P78352): below the threshold; pKd (LIN7B, Q9HAP6): below the threshold
YPKQMPLSQV [FZD8, Q9H461]	below the threshold	below the threshold	4.09	below the threshold	below the threshold	below the threshold	below the threshold	below the threshold	below the threshold	below the threshold	4.17	below the threshold	below the threshold	below the threshold	below the threshold	below the threshold	below the threshold	below the threshold	below the threshold	below the threshold	pKd (Inadl_5, Q8NI35): below the threshold; pKd (PDLIM1, O00151): below the threshold; pKd (LDB3, O75112): below the threshold; pKd (DLG4_2, P78352): below the threshold; pKd (AHNAK1, Q09666): below the threshold; pKd (GRIP1_4, Q9Y3R0): below the threshold; pKd (FRMPD3, Q5JV73): below the threshold; pKd (DLG4_3, P78352): below the threshold; pKd (LIN7B, Q9HAP6): below the threshold
GDGLDDEIAV [NOS1AP, O75052]	below the threshold	below the threshold	below the threshold	below the threshold	below the threshold	below the threshold	below the threshold	below the threshold	below the threshold	below the threshold	below the threshold	below the threshold	below the threshold	below the threshold	below the threshold	below the threshold	below the threshold	3.67	4.68	below the threshold	pKd (Inadl_5, Q8NI35): below the threshold; pKd (PDLIM1, O00151): below the threshold; pKd (LDB3, O75112): below the threshold; pKd (DLG4_2, P78352): below the threshold; pKd (AHNAK1, Q09666): below the threshold; pKd (GRIP1_4, Q9Y3R0): below the threshold; pKd (FRMPD3, Q5JV73): 4.16; pKd (DLG4_3, P78352): below the threshold; pKd (LIN7B, Q9HAP6): 3.52
